Ends that are not written are not given here.
T1: transforming growth factor-beta 3 (TGF-β3) (UniProt P10600 301-412)
T1 construct: also called TGFb3; TGFB3
T1 sequence (looked up): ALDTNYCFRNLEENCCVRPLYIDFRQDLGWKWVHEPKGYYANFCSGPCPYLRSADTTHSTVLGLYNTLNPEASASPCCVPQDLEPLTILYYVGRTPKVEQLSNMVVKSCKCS

T2: Growth and Differentiation Factor 15 (GDF15) (UniProt Q99988 197-308, limits assumed)
T2 construct: also called MIC-1; MIC1
T2 sequence (looked up): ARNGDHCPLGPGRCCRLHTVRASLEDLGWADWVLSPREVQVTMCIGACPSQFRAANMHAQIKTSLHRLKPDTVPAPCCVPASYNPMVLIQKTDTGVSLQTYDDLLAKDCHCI

T3: transforming growth factor-beta 2 (TGF-β2) (UniProt P61812 303-414)
T3 construct: also called TGFb2; TGFB2
T3 sequence (looked up): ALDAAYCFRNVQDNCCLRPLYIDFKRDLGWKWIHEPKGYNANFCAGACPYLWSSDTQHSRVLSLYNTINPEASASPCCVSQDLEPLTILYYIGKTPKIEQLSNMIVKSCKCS


Experiments:
Assay in all cases: ELISA, peptide on streptavidin plate, ligand 100 ng/ml
[1] = biological target: T1, transforming growth factor-beta 3 …
Method: (§1) Biotinylated synthetic peptide fragments from CLPTM1 (JPT peptides, Germany) were immobilized in a streptavidin 96 well plate (#15500 Pierce) at 1 μM in PBS over night at +4° C. Plate was then washed 4 times in 300 μl PBS with 0.05% tween-20 (wash buffer). The plate was then blocked with PBS 1% BSA and 0.05% tween-20 (blocking buffer) for 1.5 hours at room temperature, then washed 4 times in wash buffer. Ligands GDF15, TGFb1, TGFb2 and TGFb3 (Abcam) were added in blocking buffer at 100 ng/ml and incubated at room temperature for 2 hours. The plate was then washed 8 times in 300 μL wash buffer with 2× NaCl. An anti-GDF15 antibody was added at 1 μg/ml (R&D Systems, goat polyclonal) or a pan-specific anti-TGFb antibody (R&D Systems, mouse 1 D11), and the plate incubated in blocking buffer for 1 hour at room temperature followed by washing with 4×300 μl wash buffer. HAF017 anti-goat-HRP antibody (to detect the anti-GDF15 antibody) or Santa Cruz sc-2005 Goat anti-mouse-HRP (to detect the pan-specific anti-TGFb antibody) was added and the plate incubated for 1 hour in blocking buffer followed by a wash. TMB substrate was added and stopped after 15 minutes with H₂SO₄. OD 450-620 was measured in an ELISA reader.

[2] = biological target: T2, Growth and Differentiation Factor 15 …
Method: as §1

[3] = biological target: T3, transforming growth factor-beta 2 …
Method: as §1

[4] = biological target: T4, transforming growth factor-beta 1 (TGF-β1) (UniProt P01137 279-390)
T4 construct: also called TGFb1; TGFB1
Method: as §1

T4 sequence (P01137 279-390 limits assumed): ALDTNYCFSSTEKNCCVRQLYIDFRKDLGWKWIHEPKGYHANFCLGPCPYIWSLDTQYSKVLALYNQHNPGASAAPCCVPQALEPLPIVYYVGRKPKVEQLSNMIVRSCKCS

Row | Binder | ELISA OD450 [1] | ELISA OD450 [2] | ELISA OD450 [3] | ELISA OD450 [4]
1 | AAAQEADGARSAVVAAGGGSG (also: biotinylated, site not given here) [CLPTM1 peptide fragment of SEQ ID NO: 8] | 0.015 OD450 | 0.022 OD450 | 0.01 OD450 | 0.012 OD450
2 | RRRFQKTKNLLTGETEADPEG (also: biotinylated, site not given here) [CLPTM1 peptide fragment of SEQ ID NO: 18] | 0.004 OD450 | 0.021 OD450 | 0.002 OD450 | 0.002 OD450
3 | QAGPGGAPRVASRNLFPKDTG (also: biotinylated, site not given here) [CLPTM1 peptide fragment of SEQ ID NO: 12] | 0.004 OD450 | 0.034 OD450 | -0.006 OD450 | 0.003 OD450
4 | SALFWEQHDLVYGDWTSGENG (also: biotinylated, site not given here) [CLPTM1 peptide fragment of SEQ ID NO: 14] | 0.02 OD450 | 0.034 OD450 | 0.002 OD450 | 0.022 OD450
5 | GSIYIHVYFTKSGFHPDPRQG (also: biotinylated, site not given here) [CLPTM1 peptide fragment of SEQ ID NO: 16] | 0.02 OD450 | 0.149 OD450 | 0.107 OD450 | 0.122 OD450
6 | KALYRRLATVHMSRMINKYKG (also: biotinylated, site not given here, also called peptide 10) [CLPTM1 peptide fragment of SEQ ID NO: 17] | 0.046 OD450 | 0.197 OD450 | 1.01 OD450 | 0.913 OD450
7 | LMNLHVYISEHEHFTDFNATG (also: biotinylated, site not given here) [CLPTM1 peptide fragment of SEQ ID NO: 13] | 0.014 OD450 | 0.058 OD450 | 0.005 OD450 | 0.02 OD450
8 | QNPPAQPAPNAWQVIKGVLFG (also: biotinylated, site not given here) [CLPTM1 peptide fragment of SEQ ID NO: 10] | 0.006 OD450 | 0.042 OD450 | 0.013 OD450 | 0.026 OD450
9 | SGQVTSNGSIGRDPPAETQPG (also: biotinylated, site not given here) [CLPTM1 peptide fragment of SEQ ID NO: 9] | 0.001 OD450 | 0.009 OD450 | 0.001 OD450 | 0.002 OD450
10 | SDGCYEHFAELDIPQSVQQNG (also: biotinylated, site not given here) [CLPTM1 peptide fragment of SEQ ID NO: 15] | 0.004 OD450 | 0.024 OD450 | -0.003 OD450 | 0.006 OD450
11 | RIFIIWAISSWFRRGPAPQDG (also: biotinylated, site not given here) [CLPTM1 peptide fragment of SEQ ID NO: 11] | 0.003 OD450 | 0.026 OD450 | -0.003 OD450 | 0.008 OD450

Second part, the binder after the results:

Row | ELISA OD450 [1] | ELISA OD450 [2] | ELISA OD450 [3] | ELISA OD450 [4] | Binder
12 | 0.065 OD450 | 0.14 OD450 | 0.019 OD450 | 0.152 OD450 | LDQYVKFDAVSGDYYPIIYFG (also: biotinylated, site not given here, also called peptide 14) [CLPTM1 peptide fragment of SEQ ID NO: 21]
13 | 0.003 OD450 | 0.016 OD450 | 0.123 OD450 | 0.058 OD450 | ARSAVVAAGGGSSGQVTSNGSIGRDPPAETQPQNPPAQPA (also: biotinylated, site not given here, also called peptide 27; GT3) [CLPTM1 peptide fragment of SEQ ID NO: 34]
14 | 0.014 OD450 | 0.022 OD450 | 0.007 OD450 | 0.01 OD450 | YEQSDEEQDSVKVALLETNPG (also: biotinylated, site not given here) [CLPTM1 peptide fragment of SEQ ID NO: 25]
15 | 0.399 OD450 | 0.518 OD450 | 2.09 OD450 | 2.81 OD450 | SGDYYPIIYFNDYWNLQKDYYPINESLA (also: biotinylated, site not given here, also called peptide 33; GT9) [CLPTM1 peptide fragment of SEQ ID NO: 40]
16 | 0.095 OD450 | 0.174 OD450 | 0.838 OD450 | 1.64 OD450 | DTLMNLHVYISEHEHFTDFNATSALFWEQHDLVYGDWTSG (also: biotinylated, site not given here, also called peptide 29; GT5) [CLPTM1 peptide fragment of SEQ ID NO: 36]
17 | 0.091 OD450 | 0.383 OD450 | 0.717 OD450 | 1.01 OD450 | VSGDYYPIIYFNDYWNLQKDYYPINESLASLPLRVSFC (also: biotinylated, site not given here, also called peptide 31; GT7) [CLPTM1 peptide fragment of SEQ ID NO: 38]
18 | 0.068 OD450 | 0.098 OD450 | 0.005 OD450 | 0.011 OD450 | ITINIVDDHTPWVKGSVPPPG (also: biotinylated, site not given here) [CLPTM1 peptide fragment of SEQ ID NO: 20]
19 | 0.004 OD450 | 0.028 OD450 | 0.002 OD450 | 0.006 OD450 | MIKRAEDYGPVEVISHWHPNG (also: biotinylated, site not given here) [CLPTM1 peptide fragment of SEQ ID NO: 19]
20 | 0.074 OD450 | 0.137 OD450 | 0.91 OD450 | 1.86 OD450 | PLDQYVKFDAVSGDYYPIIYFNDYWNLQKDYYPINESLA (also: biotinylated, site not given here, also called peptide 32; GT8) [CLPTM1 peptide fragment of SEQ ID NO: 39]
21 | 0.3 OD450 | 0.779 OD450 | 1.63 OD450 | 2.1 OD450 | SGDYYPIIYFNDYWNLQKDYYPINESLASLPLRVSFCPLS (also: biotinylated, site not given here, also called peptide 25; GT1) [CLPTM1 peptide fragment of SEQ ID NO: 32]
22 | 0.012 OD450 | 0.053 OD450 | 0.007 OD450 | 0.018 OD450 | STKSPWNFLGDELYEQSDEEG (also: biotinylated, site not given here) [CLPTM1 peptide fragment of SEQ ID NO: 24]
23 | 0.027 OD450 | 0.029 OD450 | 0.031 OD450 | 0.098 OD450 | NAWQVIKGVLFRIFIIWAISSWFRRGPAPQDQAGPGGA (also: biotinylated, site not given here, also called peptide 28; GT4) [CLPTM1 peptide fragment of SEQ ID NO: 35]
24 | 0.613 OD450 | 0.209 OD450 | 0.483 OD450 | 0.389 OD450 | TKSGFHPDPRQKALYRRLATVHMSRMINKYKRRRFQKTKN (also: biotinylated, site not given here, also called peptide 30; GT6) [CLPTM1 peptide fragment of SEQ ID NO: 37]
25 | 0.016 OD450 | 0.063 OD450 | 0.066 OD450 | 0.083 OD450 | PLRVSFCPLSLWRWQLYAAQG (also: biotinylated, site not given here) [CLPTM1 peptide fragment of SEQ ID NO: 23]
26 | 0.007 OD450 | 0.021 OD450 | 0.009 OD450 | 0.177 OD450 | LWRWQLYAAQSTKSPWNFLGDELYEQSDEEQDSVKVALLETNP (also: biotinylated, site not given here, also called peptide 26; GT2) [CLPTM1 peptide fragment of SEQ ID NO: 33]
27 | 0.025 OD450 | 0.038 OD450 | 0.005 OD450 | 0.017 OD450 | NDYWNLQKDYYPINESLASLG (also: biotinylated, site not given here) [CLPTM1 peptide fragment of SEQ ID NO: 22]
